pEC50: −log10 of the molar value.

Here are results for two substances from patent US20250145724A1.

Experiment [1] concerns the target Adenosine A2A receptor (human) (human) (UniProt P29274). The experiment in a line: cell-based or functional assay.
Experiment [2] has the same target. The experiment is described as follows: flow cytometry, control antibody, HEK293-A2a cells (A2a Singlets); Parent Singlets median 230; same picture as FIG. 16O.
Experiment [3] has the same target. The experiment in a line: flow cytometry titration 0.05-100 nM IgG, MFI; grey curve and grey number taken as HEK293-A2a cells, black (ND) as parent cells, no legend on the sheet.
The target is the same in experiment [4]. The experiment is described as follows: flow cytometry, control antibody, HEK293-A2a cells (A2a Singlets); Parent Singlets median 230.
Experiment [5] shares this target. The experiment is described as follows: flow cytometry titration 0.05-100 nM IgG, MFI; grey curve and grey number taken as HEK293-A2a cells, black (ND) as parent cells; same data as FIG. 17H.

Adenosine A2A receptor (human) (human), sequence (P29274 whole entry): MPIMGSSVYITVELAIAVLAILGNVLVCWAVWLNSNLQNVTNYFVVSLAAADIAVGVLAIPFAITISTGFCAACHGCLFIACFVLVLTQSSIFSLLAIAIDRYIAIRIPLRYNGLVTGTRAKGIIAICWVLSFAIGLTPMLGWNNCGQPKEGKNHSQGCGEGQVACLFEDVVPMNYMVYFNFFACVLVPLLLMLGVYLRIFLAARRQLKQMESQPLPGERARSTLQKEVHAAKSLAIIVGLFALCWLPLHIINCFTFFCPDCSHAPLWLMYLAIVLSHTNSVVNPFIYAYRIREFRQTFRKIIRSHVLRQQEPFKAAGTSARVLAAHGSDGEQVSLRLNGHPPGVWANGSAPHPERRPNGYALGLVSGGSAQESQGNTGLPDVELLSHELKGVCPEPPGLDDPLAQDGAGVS

In experiment [1], R&D control antibody returned an Absolute IC50, A2A cAMP antagonist titration of 9.43; an Absolute IC50, LANCE allosteric cAMP assay (titrated IgG, fixed NECA) of 0.00943 µM; an Absolute IC50, cAMP allosteric A2A Perkin Elmer assay of 0.000513 µM.

As to “Human Adenosine A2aR monoclonal (MAB9497) (antibody)”, the Median : RL1-H in experiment [2] and in experiment [4] was 7500 each time. The pEC50 in experiment [3] and in experiment [5] was 7.66 each time.
